This experiment concerns the target Recombinant Human VEGF-A165 (human). In words: ELISA; VEGF 165 (0.5 ug) on 96-well plates; serial dilutions (0.05 to 10 uM) of Flag-tagged HSPB1 wild type or C-terminal HSPB1 in PBS plus 1% BSA, 37°C, 2 hours; detected with anti-flag monoclonal antibody; Kd by Scatchard analysis.

pKd: −log10 of the molar value.

Among the data in article PMC3896397 are Kd values, retold here.

For “C-terminal HSPB1 fragment, secretory HSPB1 (59-203) (from UniProt P04792 59-203) (domain or fragment)”, the pKd is 6.11.
With “Flag-tagged secretory wild-type HSPB1 (from UniProt P04792 1-205) (natural protein)” the figure was 4.97.
